{"source": "paper PMC4225561", "origin": "cited, not measured here", "biological_target": "Myo4p 27-residue fragment (Saccharomyces cerevisiae) (UniProt P32492)", "sequence (P32492 528-554)": "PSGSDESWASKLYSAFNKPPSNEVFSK", "assay": "pull-down"}
{"substance": "She4p (from UniProt P51534)", "values": [{"measurement": "Kd", "value": 1000, "unit": "nM"}]}
